From US20230357415A1 (AJOU UNIVERSITY INDUSTRY ACADEMIC COOPERATION FOUNDATION, published 2023)
Substitutions are numbered along the chain they refer to.

T1: purified sIL-5Rα (Asp1-Asn313 of SEQ ID NO: 66) (Homo sapiens (Human), UniProt Q01344 21-333)
T1 construct: also called the purified sIL-5Rα
T1 sequence: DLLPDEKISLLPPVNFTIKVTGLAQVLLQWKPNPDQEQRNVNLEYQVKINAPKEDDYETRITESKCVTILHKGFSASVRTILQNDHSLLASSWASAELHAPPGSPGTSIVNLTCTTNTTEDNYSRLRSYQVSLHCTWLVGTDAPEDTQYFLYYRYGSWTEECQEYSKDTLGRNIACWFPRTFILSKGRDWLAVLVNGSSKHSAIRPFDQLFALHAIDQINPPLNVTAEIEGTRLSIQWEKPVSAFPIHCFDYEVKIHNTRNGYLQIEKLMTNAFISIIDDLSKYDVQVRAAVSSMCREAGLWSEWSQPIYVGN

T2: sIL-5Rα antigen protein (Sinobio 10392-H08H) (Homo sapiens (Human), UniProt Q01344 21-342)
T2 construct: Bought protein immobilised in the indirect ELISAs; also called soluble IL-5Rα; CD125
T2 sequence: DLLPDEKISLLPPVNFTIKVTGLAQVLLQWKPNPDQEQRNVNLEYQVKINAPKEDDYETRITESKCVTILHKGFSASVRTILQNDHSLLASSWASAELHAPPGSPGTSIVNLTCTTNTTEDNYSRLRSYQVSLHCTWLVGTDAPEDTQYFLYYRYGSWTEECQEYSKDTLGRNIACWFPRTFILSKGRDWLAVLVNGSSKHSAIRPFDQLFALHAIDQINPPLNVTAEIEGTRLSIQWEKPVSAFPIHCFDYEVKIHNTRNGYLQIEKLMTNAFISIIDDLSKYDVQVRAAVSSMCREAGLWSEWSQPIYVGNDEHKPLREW

B1: 4R.N3 (antibody, V domains shown)
VH: EVQLLESGGGLVQPGGSLRLSCAASGFTFSRHAMAWVRQAPGKGLEWVSAITMSGRSIYYADSVKGRFTISRDNSKNTLYLQMNSLRAEDTAVYYCARVHRAFDYWGQGTLVTVSS
VL: QSVLTQPPSASGTPGQRVTISCSGSPLFPDSGSFNWYQQLPGTAPKLLIYADSHRPSGVPDRFSGSKSGTSASLAISGLRSEDEADYYCGTWDYSLNRYVLGGGTKLTVLG
notes: Converted from scFab to IgG1 and expressed in HEK293F
B2: 4R.N7 (antibody, V domains shown)
VH: B1 VH with M53A
VL: B1 VL with N97S, R98S
notes: as for B1
B3: 4R.N1 (antibody, V domains shown)
VH: B1 VH with M53A
VL: B1 VL
notes: Converted from scFab to IgG1 (pcDNA3.4 vector with IgG1 constant regions) and expressed in HEK293F
B4: 4R.N5 (antibody, V domains shown)
VH: B1 VH with M53A, R56M, S63F, V64A
VL: B1 VL
notes: as for B1
B5: 4R.N4 (antibody, V domains shown)
VH: B1 VH with S57G
VL: B1 VL with N97S, R98A
notes: as for B1
B6: 4R.N6 (antibody, V domains shown)
VH: B1 VH
VL: B1 VL with R98S
notes: as for B1
B7: 5R65 (antibody, V domains shown)
VH: QVQLVQSGAEVKKPGSSVKVSCKASGYTFTSYWINWVRQAPGQGLEWIGHIYPNKNENYYNHKFKDKATLTVDKSTNTAYMELSSLRSEDTAVYYCTRDYYGRSYYYAMDYWGQGTTLTVSS
VL: DIQMTQSPSTLSASVGDRVTITCKASQNVGTAVAWYQQKPGKAPKLLIYWASTRHTGVPDRFSGSGSGTDFTLTISSLQPDDFATYYCQQFGRYPYTFGSGTKVEVK
notes: IgG1 (variable regions in a pcDNA3.4 vector encoding IgG1 constant regions); also called anti-IL-5Rα humanized antibody 5R65; anti-IL-5Rα antibody (5R65)
B8: 5R65.39 (antibody, IgG1, V domains shown)
VH: B7 VH with D99E, Y100F, Y105R, Y107S
VL: B7 VL
notes: IgG1
B9: 5R65.14 (antibody, IgG1, V domains shown)
VH: B7 VH with D99E, Y100H, S104P, Y107N
VL: B7 VL
notes: IgG1
B10: 5R65.7 (antibody, IgG1, V domains shown)
VH: B7 VH with D99E, Y100F, S104Q, Y107Q
VL: B7 VL
notes: IgG1
B11: 5R65.10 (antibody, IgG1, V domains shown)
VH: B7 VH with D99E, Y107A
VL: B7 VL
notes: IgG1
B12: 5R65.18 (antibody, IgG1, V domains shown)
VH: B7 VH with D99E, S104T, Y107S
VL: B7 VL
notes: IgG1
B13: 5R65.45 (antibody, IgG1, V domains shown)
VH: B7 VH with D99E, Y107N
VL: B7 VL
notes: IgG1
B14: 4R34.1.19 antibody (antibody, V domains shown)
VH: B1 VH with M53S
VL: B1 VL with N97S, R98G
notes: Parent anti-IL-4Rα antibody, tested as IgG1 and captured through human Fc; also called anti-IL-4Rα antibody (4R34.1.19)

biological target: T3, sIL-4Rα (soluble IL-4Rα) antigen protein (human, UniProt P24394 26-232); assay: BLI (Octet QKe), antibody on AHC sensor, sIL-4Rα in solution, 1:1 model
T3 construct: The ELISA and Octet assays used the bought protein (Sinobio 10402-H08H); also called CD124; sinobio 10402-H08H
Method: Antigen affinity of antibodies was analyzed through variation in the refractive index occurring when the antibody bound to the antigen was detached therefrom while the AHC (anti-human IgG Fc capture) sensor chip moved in the order of kinetic buffer, antibody dilution solution, kinetic buffer, antigen dilution solution, and kinetic buffer. Affinity was calculated with Octet Data Analysis software 11.0 in a 1:1 binding model.

First: B1
Second: B2
The Kd of the first is 1.6-fold higher: 0.0686 nM for the first, 0.0431 nM for the second.

Compared with B3, B4 is 2.3-fold lower in Kd: 0.17 nM for the first, 0.0748 nM for the second. The second binds more tightly here.

B5 and B6 are within 1.5-fold of each other in Kd: 0.0997 nM for the first, 0.0705 nM for the second.

Going from B1 to B2, the koff falls from 0.000139 s⁻¹ to 6.07e-05 s⁻¹ (2.3-fold).

Going from B3 to B4, the koff falls from 0.000338 s⁻¹ to 0.00012 s⁻¹ (2.8-fold).

B5 and B6 are within 1.5-fold of each other in koff: 0.000162 s⁻¹ for the first, 0.000126 s⁻¹ for the second.

B1 and B2 are within 1.5-fold of each other in kon: 2.02e+06 M⁻¹ s⁻¹ for the first, 1.55e+06 M⁻¹ s⁻¹ for the second.

B3 and B4 are within 1.5-fold of each other in kon: 1.99e+06 M⁻¹ s⁻¹ for the first, 1.6e+06 M⁻¹ s⁻¹ for the second.

B5 and B6 are within 1.5-fold of each other in kon: 1.63e+06 M⁻¹ s⁻¹ for the first, 1.79e+06 M⁻¹ s⁻¹ for the second.

biological target: T1, purified sIL-5Rα (Asp1-Asn313 of SEQ ID …); assay: BLI (Octet QKe), antibody on AHC sensor, purified sIL-5Rα in solution, 1:1 model
Method: Specifically, lx kinetic buffer was prepared by diluting 10× kinetic buffer (ForteBio, 18-1105) in PBS. […] Affinity was calculated with Octet Data Analysis software 11.0 in a 1:1 binding model.

Compared with B7, B8 is 2.4-fold lower in Kd: 14.5 nM for the first, 6.13 nM for the second. The second binds more tightly here.

Compared with B9, B10 is 1.9-fold lower in Kd: 8.64 nM for the first, 4.64 nM for the second. The second binds more tightly here.

B11 and B12 are within 1.5-fold of each other in Kd: 8.25 nM for the first, 5.95 nM for the second.

In the case of B13, the Kd is reported as 7.26 nM.

Compared with B7, B8 is 1.9-fold lower in koff: 0.000329 s⁻¹ for the first, 0.000171 s⁻¹ for the second.

B9 and B10 are within 1.5-fold of each other in koff: 0.000199 s⁻¹ for the first, 0.000147 s⁻¹ for the second.

First: B11
Second: B12
The koff of the first is 1.5-fold higher: 0.000201 s⁻¹ for the first, 0.000133 s⁻¹ for the second.

Work on B13 yielded a koff of 0.000181 s⁻¹.

B7 and B8 are within 1.5-fold of each other in kon: 22700 M⁻¹ s⁻¹ for the first, 28000 M⁻¹ s⁻¹ for the second.

B9 and B10 are within 1.5-fold of each other in kon: 23000 M⁻¹ s⁻¹ for the first, 31700 M⁻¹ s⁻¹ for the second.

B11 and B12 are within 1.5-fold of each other in kon: 24400 M⁻¹ s⁻¹ for the first, 22400 M⁻¹ s⁻¹ for the second.

B13 gave a kon of 24900 M⁻¹ s⁻¹.

biological target: T4, insulin (Homo sapiens (Human), UniProt P01308 25-54; P01308 90-110, Mature two-chain hormone: A and B chains joined by two interchain disulfides, plus one intrachain disulfide in the A chain; the letters do not carry these.); assay: indirect ELISA; plate-coated insulin, antibody 100 nM, anti-human Fc-HRP, absorbance at 450 nm
T4 construct: Irrelevant antigen of the multi-antigen specificity ELISA; also called insulin (125 ng/well, 19278; Sigma)
Method: (§1) The binding specificity of the antibody was determined using indirect ELISA. A multi-antigen ELISA was performed using four structurally different antigenic double-stranded DNA (dsDNA), insulin, the macromolecule hemocyanin, and the membrane component, cardiolipin. Specifically, sIL-4Rα antigen protein (50 ng/well, sinobio; 10402-H08H), sIL-5Rα antigen protein (50 ng/well, sinobio; 10392-H08H), dsDNA (25 ng/well, D4522; Sigma), insulin (125 ng/well, 19278; Sigma), hemocyanin (125 ng/well, H8283; Sigma), and cardiolipin (1250 ng/well, C0563; Sigma) proteins were immobilized on a 96-well plate at room temperature for 1 hour, and blocked using 2% skim milk containing 0.1% PBST (0.1% Tween20, pH 7.4, 137 mM NaCl, 10 mM phosphate, 2.7 mM KCl) at room temperature for 1 hour. After discarding the solution and then washing the same three times with 0.1% PBST, the antibody was diluted to 100 nM, added to the blocked plate in an amount of 25 μl/well, and allowed to react at room temperature for 1 hour. After discarding the solution and washing the same three times with 0.1% PBST, an anti-human Fc-HRP antibody (1:8000) as a secondary antibody was added in an amount of 25 μl/well and reacted at room temperature for 1 hour. After discarding the solution and washing three times with PBST, a TMB solution was added in an amount of 25 μl/well, color development was induced at room temperature for 2 minutes, the reaction was stopped using H₂SO₄ (2N), and the absorbance at 450 nm was measured with an ELISA reader.

T4 sequence (P01308 25-54 limits assumed, chain 1 of 2): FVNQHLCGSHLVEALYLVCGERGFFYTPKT
T4 sequence (P01308 90-110 limits assumed, chain 2 of 2): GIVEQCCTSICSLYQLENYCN

B1: no binding (tested: 100 nM).
B2: no binding (tested: 100 nM).
B3: no binding (tested: 100 nM).
B5: no binding (tested: 100 nM).
B6: no binding (tested: 100 nM).

biological target: T2, sIL-5Rα antigen protein (Sinobio …); assay: indirect ELISA; plate-coated sIL-5Rα, antibody 100 nM, anti-human Fc-HRP, absorbance at 450 nm
Method: as §1

B14: binds.
B1: no binding (tested: 100 nM).
B2: no binding (tested: 100 nM).
B3: no binding (tested: 100 nM).
B5: no binding (tested: 100 nM).
B6: no binding (tested: 100 nM).

biological target: T4, insulin; assay: indirect ELISA; plate-coated insulin, antibody 100 nM, anti-human Fc-HRP, absorbance at 450 nm; remark: another data set of the same source
Method: as §1, with “of anti-IL-5Rα humanized antibodies” for “of the antibody”, “ng/well, Sinobio;” for “ng/well, sinobio;”, “[…],” for “25 μl/well,”, “hour. […]” for “hour. After discarding the solution and washing the same three times with 0.1% PBST, an anti-human Fc-HRP antibody (1:8000) as a secondary antibody was added in an amount of 25 μl/well and reacted at room temperature for 1 hour.”

B8: no binding (tested: 100 nM).
B13: no binding (tested: 100 nM).

biological target: T3, sIL-4Rα (soluble IL-4Rα) antigen protein; assay: indirect ELISA; plate-coated sIL-4Rα, antibody 100 nM, anti-human Fc-HRP, absorbance at 450 nm
Method: as §1, with “of anti-IL-5Rα humanized antibodies” for “of the antibody”, “ng/well, Sinobio;” for “ng/well, sinobio;”, “[…],” for “25 μl/well,”, “hour. […]” for “hour. After discarding the solution and washing the same three times with 0.1% PBST, an anti-human Fc-HRP antibody (1:8000) as a secondary antibody was added in an amount of 25 μl/well and reacted at room temperature for 1 hour.”

B8: no binding (tested: 100 nM).
B13: no binding (tested: 100 nM).
